Assays:
[1] = molecular target: the molecule itself; assay: fluorescence correlation spectroscopy (FCS), particle brightness (counts per particle) analysis; FCS-microwell system: single transfected U2OS cell lysed in a 113 pL PDMS microwell; absence of Dex; lysis buffer with 0.1% SDS and Benzonase; bimolecular reaction model fitted in the 0-50 nM range; dimer to monomers
[2] = molecular target: the molecule itself; assay: fluorescence correlation spectroscopy (FCS), particle brightness (counts per particle) analysis; FCS-microwell system: single transfected U2OS cell, 500 nM Dex at 37 °C for 20 min, then lysed in a 113 pL PDMS microwell; lysis buffer with 0.1% SDS and Benzonase; bimolecular reaction model fitted in the 0-50 nM range; dimer to monomers

Protein | Kd [1] [nM] | Kd [2] [nM]
EGFP-fused human glucocorticoid receptor α C421G mutant (natural protein, UniProt P04150 1-777, looked up, glucocorticoid receptor α, human, with C421G; also called EGFP-GR/C421G; GR/C421G; source: U2OS, transfected (ViaFect), in single-cell lysate) MDSKESLTPGREENPSSVLAQERGDVMDFYKTLRGGATVKVSASSPSLAVASQSDSKQRRLLVDFPKGSVSNAQQPDLSKAVSLSMGLYMGETETKVMGNDLGFPQQGQISLSSGETDLKLLEESIANLNRSTSVPENPKSSASTAVSAAPTEKEFPKTHSDVSSEQQHLKGQTGTNGGNVKLYTTDQSTFDILQDLEFSSGSPGKETNESPWRSDLLIDENCLLSPLAGEDDSFLLEGNSNEDCKPLILPDTKPKIKDNGDLVLSSPSNVTLPQVKTEKEDFIELCTPGVIKQEKLGTVYCQASFPGANIIGNKMSAISVHGVSTSGGQMYHYDMNTASLSQQQDQKPIFNVIPPIPVGSENWNRCQGSGDDNLTSLGTLNFPGRTVFSNGYSSPSMRPDVSSPPSSSSTATTGPPPKLGLVCSDEASGCHYGVLTCGSCKVFFKRAVEGQHNYLCAGRNDCIIDKIRRKNCPACRYRKCLQAGMNLEARKTKKKIKGIQQATTGVSQETSENPGNKTIVPATLPQLTPTLVSLLEVIEPEVLYAGYDSSVPDSTWRIMTTLNMLGGRQVIAAVKWAKAIPGFRNLHLDDQMTLLQYSWMFLMAFALGWRSYRQSSANLLCFAPDLIINEQRMTLPCMYDQCKHMLYVSSELHRLQVSYEEYLCMKTLLLLSSVPKDGLKSQELFDEIRMTYIKELGKAIVKREGNSSQNWQRFYQLTKLLDSMHEVVENLLNYCFQTFLDKTMSIEFPEMLAEIITNQIPKYSNGNIKKLLFHQK | 400 | 220
EGFP-fused human glucocorticoid receptor α A458T mutant (natural protein, UniProt P04150 1-777, looked up, glucocorticoid receptor α, human, with A458T; also called EGFP-GR/A458T; GR/A458T; source: U2OS, transfected (ViaFect), in single-cell lysate) MDSKESLTPGREENPSSVLAQERGDVMDFYKTLRGGATVKVSASSPSLAVASQSDSKQRRLLVDFPKGSVSNAQQPDLSKAVSLSMGLYMGETETKVMGNDLGFPQQGQISLSSGETDLKLLEESIANLNRSTSVPENPKSSASTAVSAAPTEKEFPKTHSDVSSEQQHLKGQTGTNGGNVKLYTTDQSTFDILQDLEFSSGSPGKETNESPWRSDLLIDENCLLSPLAGEDDSFLLEGNSNEDCKPLILPDTKPKIKDNGDLVLSSPSNVTLPQVKTEKEDFIELCTPGVIKQEKLGTVYCQASFPGANIIGNKMSAISVHGVSTSGGQMYHYDMNTASLSQQQDQKPIFNVIPPIPVGSENWNRCQGSGDDNLTSLGTLNFPGRTVFSNGYSSPSMRPDVSSPPSSSSTATTGPPPKLCLVCSDEASGCHYGVLTCGSCKVFFKRAVEGQHNYLCTGRNDCIIDKIRRKNCPACRYRKCLQAGMNLEARKTKKKIKGIQQATTGVSQETSENPGNKTIVPATLPQLTPTLVSLLEVIEPEVLYAGYDSSVPDSTWRIMTTLNMLGGRQVIAAVKWAKAIPGFRNLHLDDQMTLLQYSWMFLMAFALGWRSYRQSSANLLCFAPDLIINEQRMTLPCMYDQCKHMLYVSSELHRLQVSYEEYLCMKTLLLLSSVPKDGLKSQELFDEIRMTYIKELGKAIVKREGNSSQNWQRFYQLTKLLDSMHEVVENLLNYCFQTFLDKTMSIEFPEMLAEIITNQIPKYSNGNIKKLLFHQK | 390 | 370
